Laboratory results from article PMC9482650, “Quantitative fragmentomics allow affinity mapping of interactomes” (Nature Communications, 2022).

What was measured:
Test in all cases: holdup assay
Design in all cases: key: below the threshold = too weak to quantify, mostly under pKd 3.1 to 4
LIMK2, P53671 = target: LIMK2, P53671
Inadl_6, Q8NI35 = target: Inadl_6, Q8NI35
SNTG2, Q9NY99 = target: T1, SNTG2, Q9NY99
T1 sequence (Q9NY99 68-166, limits assumed, looked up): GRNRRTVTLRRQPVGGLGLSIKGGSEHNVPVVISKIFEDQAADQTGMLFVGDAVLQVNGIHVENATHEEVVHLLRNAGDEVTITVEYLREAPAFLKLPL

IL16_3, Q14005 = target: IL16_3, Q14005
Sequence of IL16_3, Q14005 (Q14005 1107-1207): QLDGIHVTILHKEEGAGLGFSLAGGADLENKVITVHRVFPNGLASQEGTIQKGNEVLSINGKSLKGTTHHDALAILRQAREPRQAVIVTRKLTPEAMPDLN

LNX1_1, Q8TBB1 = target: LNX1_1, Q8TBB1
Sequence of LNX1_1, Q8TBB1 (Q8TBB1 261-371): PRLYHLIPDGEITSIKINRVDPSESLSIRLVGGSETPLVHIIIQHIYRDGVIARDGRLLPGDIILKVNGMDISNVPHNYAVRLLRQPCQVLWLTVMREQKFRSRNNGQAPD

NHERF3_4, Q5T2W1 = target: T2, NHERF3_4, Q5T2W1
T2 sequence (Q5T2W1 373-468, limits assumed, looked up): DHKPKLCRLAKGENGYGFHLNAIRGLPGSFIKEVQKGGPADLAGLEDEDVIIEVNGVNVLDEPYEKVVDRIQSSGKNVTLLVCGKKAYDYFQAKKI

PARD3_3, Q8TEW0 = target: PARD3_3, Q8TEW0
Sequence of PARD3_3, Q8TEW0 (Q8TEW0 582-685): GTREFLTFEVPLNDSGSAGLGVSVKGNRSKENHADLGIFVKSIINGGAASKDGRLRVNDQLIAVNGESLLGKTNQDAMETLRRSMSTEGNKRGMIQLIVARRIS

GOPC, Q9HD26 = target: GOPC, Q9HD26
PARD3B_1, Q8TEW8 = target: T3, PARD3B_1, Q8TEW8
T3 sequence (Q8TEW8 196-299, limits assumed, looked up): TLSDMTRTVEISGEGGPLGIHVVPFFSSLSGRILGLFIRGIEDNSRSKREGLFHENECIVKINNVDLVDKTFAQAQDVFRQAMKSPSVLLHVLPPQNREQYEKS

DLG3_1, Q92796 = target: T4, DLG3_1, Q92796
T4 sequence (Q92796 125-227, limits assumed, looked up): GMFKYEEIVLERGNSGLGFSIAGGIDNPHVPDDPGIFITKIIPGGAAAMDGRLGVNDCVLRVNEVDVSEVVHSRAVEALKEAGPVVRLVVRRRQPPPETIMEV

DLG3_2, Q92796 = target: T5, DLG3_2, Q92796
T5 sequence (Q92796 221-321, limits assumed, looked up): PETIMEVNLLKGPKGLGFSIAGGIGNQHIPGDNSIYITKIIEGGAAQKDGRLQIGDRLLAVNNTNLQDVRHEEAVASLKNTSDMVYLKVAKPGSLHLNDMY

MAST1, Q9Y2H9 = target: MAST1, Q9Y2H9
Sequence of MAST1, Q9Y2H9 (Q9Y2H9 962-1065): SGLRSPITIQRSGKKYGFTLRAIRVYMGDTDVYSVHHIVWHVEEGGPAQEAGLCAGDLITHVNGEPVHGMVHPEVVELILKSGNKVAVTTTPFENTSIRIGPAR

SCRIB_2, Q14160 = target: SCRIB_2, Q14160
Sequence of SCRIB_2, Q14160 (Q14160 857-960): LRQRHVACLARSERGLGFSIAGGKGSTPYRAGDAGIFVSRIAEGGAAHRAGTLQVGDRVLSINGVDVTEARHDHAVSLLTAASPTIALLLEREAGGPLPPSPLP

RHPN1, Q8TCX5 = target: T6, RHPN1, Q8TCX5
T6 sequence (Q8TCX5 508-602, limits assumed, looked up): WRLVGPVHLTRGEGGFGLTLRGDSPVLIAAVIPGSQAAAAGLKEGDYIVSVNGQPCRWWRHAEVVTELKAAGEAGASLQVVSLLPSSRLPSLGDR

SHANK1, Q9Y566 = target: T7, SHANK1, Q9Y566
T7 sequence (Q9Y566 658-767, limits assumed, looked up): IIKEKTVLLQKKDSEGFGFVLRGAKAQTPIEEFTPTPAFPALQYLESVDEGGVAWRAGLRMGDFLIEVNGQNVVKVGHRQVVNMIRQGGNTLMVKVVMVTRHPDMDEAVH

APBA2_1, Q99767 = target: T8, APBA2_1, Q99767
T8 sequence (Q99767 563-664, limits assumed, looked up): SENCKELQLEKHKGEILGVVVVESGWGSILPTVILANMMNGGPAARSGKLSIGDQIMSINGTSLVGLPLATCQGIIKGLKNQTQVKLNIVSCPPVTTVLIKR

GRID2IP_2, A4D2P6 = target: GRID2IP_2, A4D2P6
Sequence of GRID2IP_2, A4D2P6 (A4D2P6 272-370): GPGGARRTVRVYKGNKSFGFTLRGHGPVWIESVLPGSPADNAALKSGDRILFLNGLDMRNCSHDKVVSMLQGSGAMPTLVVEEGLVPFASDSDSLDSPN

GORASP2, Q9H8Y8 = target: GORASP2, Q9H8Y8
TJP1_2, Q07157 = target: TJP1_2, Q07157
Sequence of TJP1_2, Q07157 (Q07157 181-274): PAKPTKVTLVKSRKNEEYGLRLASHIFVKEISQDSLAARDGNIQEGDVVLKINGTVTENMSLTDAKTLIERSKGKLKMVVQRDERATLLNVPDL

MAST2, Q6P0Q8 = target: MAST2, Q6P0Q8
Sequence of MAST2, Q6P0Q8 (Q6P0Q8 1099-1202): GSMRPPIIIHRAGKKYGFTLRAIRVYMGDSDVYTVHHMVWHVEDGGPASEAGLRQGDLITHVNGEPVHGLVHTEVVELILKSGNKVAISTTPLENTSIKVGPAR

LNX1_2, Q8TBB1 = target: LNX1_2, Q8TBB1
Sequence of LNX1_2, Q8TBB1 (Q8TBB1 371-470): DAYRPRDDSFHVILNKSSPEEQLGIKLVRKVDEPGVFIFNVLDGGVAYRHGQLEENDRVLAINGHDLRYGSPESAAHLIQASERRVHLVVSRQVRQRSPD

SCRIB_1, Q14160 = target: SCRIB_1, Q14160
Sequence of SCRIB_1, Q14160 (Q14160 718-814): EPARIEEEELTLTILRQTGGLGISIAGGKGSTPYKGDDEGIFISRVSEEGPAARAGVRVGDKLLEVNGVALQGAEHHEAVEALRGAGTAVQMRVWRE

Inadl_8, Q8NI35 = target: Inadl_8, Q8NI35
Sequence of Inadl_8, Q8NI35 (Q8NI35 1425-1530): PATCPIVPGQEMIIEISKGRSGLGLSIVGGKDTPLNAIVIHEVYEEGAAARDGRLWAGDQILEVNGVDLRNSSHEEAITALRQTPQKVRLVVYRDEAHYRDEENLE

FRMPD2_1, Q68DX3 = target: FRMPD2_1, Q68DX3
Sequence of FRMPD2_1, Q68DX3 (Q68DX3 770-861): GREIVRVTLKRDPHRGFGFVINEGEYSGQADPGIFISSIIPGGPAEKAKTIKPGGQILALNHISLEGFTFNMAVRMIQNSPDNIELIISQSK

GRIP2_4, Q9C0E4 = target: GRIP2_4, Q9C0E4
Sequence of GRIP2_4, Q9C0E4 (Q9C0E4 446-548): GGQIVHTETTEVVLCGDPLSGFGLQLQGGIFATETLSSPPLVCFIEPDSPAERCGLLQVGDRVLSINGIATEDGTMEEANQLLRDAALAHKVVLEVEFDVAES

DVL3, Q92997 = target: T9, DVL3, Q92997
T9 sequence (Q92997 244-331, limits assumed, looked up): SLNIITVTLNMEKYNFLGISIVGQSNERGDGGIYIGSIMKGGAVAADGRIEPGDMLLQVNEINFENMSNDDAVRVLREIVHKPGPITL

MPDZ_12, O75970 = target: T10, MPDZ_12, O75970
T10 sequence (O75970 1857-1958, limits assumed, looked up): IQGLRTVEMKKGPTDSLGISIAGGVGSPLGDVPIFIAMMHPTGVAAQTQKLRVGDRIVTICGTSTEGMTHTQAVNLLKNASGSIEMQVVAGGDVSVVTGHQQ

[1] = plain residues with an end cap or a label only (N-terminal biotin on a linker: ado-ado)
[2] = plain residues with an end cap or a label only (N-terminal biotin on a linker: (peg)3)

Sequence of LIMK2, P53671 (P53671 143-248): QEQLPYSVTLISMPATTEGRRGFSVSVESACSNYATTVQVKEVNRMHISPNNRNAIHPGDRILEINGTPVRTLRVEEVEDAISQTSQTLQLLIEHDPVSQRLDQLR
Sequence of Inadl_6, Q8NI35 (Q8NI35 1058-1167): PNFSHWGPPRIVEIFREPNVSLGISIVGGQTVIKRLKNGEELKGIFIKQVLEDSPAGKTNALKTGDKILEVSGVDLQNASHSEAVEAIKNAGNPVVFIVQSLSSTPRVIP

Question: Which results are given for DFRHKSSFVI [JAM3, Q9BX67]?
Answer: pKd (LIMK2, P53671; [1]): below the threshold; pKd (Inadl_6, Q8NI35; [1]): below the threshold; pKd (SNTG2, Q9NY99; [1]): below the threshold; pKd (IL16_3, Q14005; [1]): below the threshold; pKd (LNX1_1, Q8TBB1; [1]): below the threshold; pKd (NHERF3_4, Q5T2W1; [1]): below the threshold; pKd (PARD3_3, Q8TEW0; [1]): 3.94; pKd (GOPC, Q9HD26; [1]): below the threshold; pKd (PARD3B_1, Q8TEW8; [1]): 5.03; pKd (DLG3_1, Q92796; [1]): below the threshold; pKd (DLG3_2, Q92796; [1]): 4.16; pKd (MAST1, Q9Y2H9; [1]): below the threshold; pKd (SCRIB_2, Q14160; [1]): below the threshold; pKd (RHPN1, Q8TCX5; [1]): below the threshold; pKd (SHANK1, Q9Y566; [1]): below the threshold; pKd (APBA2_1, Q99767; [1]): below the threshold; pKd (GRID2IP_2, A4D2P6; [1]): below the threshold; pKd (GORASP2, Q9H8Y8; [1]): 5.21; pKd (TJP1_2, Q07157; [1]): below the threshold; pKd (MAST2, Q6P0Q8; [1]): 3.76; pKd (LNX1_2, Q8TBB1; [1]): below the threshold; pKd (SCRIB_1, Q14160; [1]): below the threshold; pKd (Inadl_8, Q8NI35; [1]): below the threshold; pKd (FRMPD2_1, Q68DX3; [1]): below the threshold; pKd (GRIP2_4, Q9C0E4; [1]): below the threshold; pKd (DVL3, Q92997; [1]): below the threshold; pKd (MPDZ_12, O75970; [1]): 3.49

Question: For YDEPTTTTSVPL [SARS-Cov2-3a, P0DTC3], which pKd (LIMK2, P53671; [2]) is on record?
Answer: below the threshold

Question: What about the pKd (Inadl_6, Q8NI35; [2]) of the same binder?
Answer: below the threshold

Question: And the pKd (SNTG2, Q9NY99; [2])?
Answer: below the threshold

Question: What about the pKd (IL16_3, Q14005; [2]) of the same binder?
Answer: below the threshold

Question: And the pKd (LNX1_1, Q8TBB1; [2])?
Answer: below the threshold

Question: What about the pKd (NHERF3_4, Q5T2W1; [2]) of the same binder?
Answer: 4.29

Question: What about the pKd (PARD3_3, Q8TEW0; [2]) of the same binder?
Answer: below the threshold

Question: And the pKd (GOPC, Q9HD26; [2])?
Answer: below the threshold

Question: And the pKd (PARD3B_1, Q8TEW8; [2])?
Answer: 4.12

Question: What about the pKd (DLG3_1, Q92796; [2]) of the same binder?
Answer: below the threshold

Question: And the pKd (DLG3_2, Q92796; [2])?
Answer: below the threshold

Question: And the pKd (MAST1, Q9Y2H9; [2])?
Answer: below the threshold

Question: And the pKd (SCRIB_2, Q14160; [2])?
Answer: below the threshold

Question: And the pKd (RHPN1, Q8TCX5; [2])?
Answer: below the threshold

Question: What about the pKd (SHANK1, Q9Y566; [2]) of the same binder?
Answer: below the threshold

Question: And the pKd (APBA2_1, Q99767; [2])?
Answer: below the threshold

Question: What about the pKd (GRID2IP_2, A4D2P6; [2]) of the same binder?
Answer: below the threshold

Question: And the pKd (GORASP2, Q9H8Y8; [2])?
Answer: below the threshold

Question: And the pKd (TJP1_2, Q07157; [2])?
Answer: 4.56

Question: And the pKd (MAST2, Q6P0Q8; [2])?
Answer: below the threshold

Question: And the pKd (LNX1_2, Q8TBB1; [2])?
Answer: below the threshold

Question: And the pKd (SCRIB_1, Q14160; [2])?
Answer: below the threshold

Question: What about the pKd (Inadl_8, Q8NI35; [2]) of the same binder?
Answer: below the threshold

Question: What about the pKd (FRMPD2_1, Q68DX3; [2]) of the same binder?
Answer: below the threshold

Question: And the pKd (GRIP2_4, Q9C0E4; [2])?
Answer: below the threshold

Question: What about the pKd (DVL3, Q92997; [2]) of the same binder?
Answer: below the threshold

Question: And the pKd (MPDZ_12, O75970; [2])?
Answer: below the threshold
